US20230241072A1, “ANTHRACYCLINE DERIVATIVES” (ALMAC DISCOVERY LIMITED, priority 2019, published 2023)

Target: ROR1 on the surface of human cancer cells (human) (UniProt Q01973)
Test: cell-based or functional assay

Row | ROR1 targeting/2V non-targeting window, 697 cells | ROR1 targeting/2V non-targeting window, Kasumi-2 cells | ROR1 targeting/2V non-targeting window, MHH-ES1 cells | ROR1 targeting/2V non-targeting window, PA-1 cells | Binder | IC50 (nM) 96 h, cell viability (Cell Titre Glo), 697 cells | IC50 (nM) 96 h, cell viability (Cell Titre Glo), Kasumi-2 cells | IC50 (nM) 96 h, cell viability (Cell Titre Glo), MHH-ES1 cells | IC50 (nM) 96 h, cell viability (Cell Titre Glo), PA-1 cells
1 | 1.2 fold | 18 fold | 1.1 fold | 73 fold | P3A1hFc-PEG4-vc-PAB-EDA-PNU (Fc fusion, not shown: a dimerising Fc or GST, MA-PEG4-vc-PAB-EDA-PNU159682 on Cys 239 (EU) of the Fc) TRVDQTPRTATKETGESLTINCVLTDTSYGLYSTSWFRKNPGTTDWERMSIGGRYVESVNKGAKSFSLRIKDLTVADSATYYCKAREARHPWLRQWYDGAGTVLTVNGGGGSGGGGSGGGGS | 52 nM | 3.2 nM | 24 nM | 0.1 nM
2 | 4 fold | 43 fold | 8.4 fold | 360 fold | P3A1hFc-PEG4-va-EDA-PNU (Fc fusion, not shown: a dimerising Fc or GST, MA-PEG4-va-EDA-PNU159682 on Cys 239 (EU) of the Fc) TRVDQTPRTATKETGESLTINCVLTDTSYGLYSTSWFRKNPGTTDWERMSIGGRYVESVNKGAKSFSLRIKDLTVADSATYYCKAREARHPWLRQWYDGAGTVLTVNGGGGSGGGGSGGGGS | 61 nM | 2.3 nM | 18 nM | 0.15 nM
3 | – | – | – | – | P3A1hFc(442)-PEG4-va-EDA-PNU (Fc fusion, not shown: a dimerising Fc or GST, MA-PEG4-va-EDA-PNU159682 on Cys 442 (EU) of the Fc) TRVDQTPRTATKETGESLTINCVLTDTSYGLYSTSWFRKNPGTTDWERMSIGGRYVESVNKGAKSFSLRIKDLTVADSATYYCKAREARHPWLRQWYDGAGTVLTVNGGGGSGGGGSGGGGS | – | 9.1 nM | 37.5 nM | 0.025 nM
